# Test results reported in the Human Domainome abundance scans (Beltran et al. 2025).
# ± gives the uncertainty stated by the source.
# B1: Calcium-binding protein 2, residues 155 to 219; numbered along this chain, Q9NPB3 (parent)
# chain: RELRDAFREFDTNGDGRISVGELRAALKALLGERLSQREVDEILQDVDLNGDGLVDFEEFVRMMS
# Variants of: B1
# Assay: abundance fitness (aPCA) (normalised: wild type 0, dead -1); higher = more abundant; growth selection in yeast, the domain comes from the species named
# Conditions: Homo sapiens
row,Variant,abundance fitness
1,RELRDAFREFDTNGDGRISVGELRAALKALLGERLSQREVDEILQDHDLNGDGLVDFEEFVRMMS [V47H],0.057 ± 0.12
2,RELRDAFREFDTNGDGRISVGELRAALKALLGERLSQREVDEILQDIDLNGDGLVDFEEFVRMMS [V47I],-0.204 ± 0.048
3,RELRDAFREFDTNGDGRISVGELRAALKALLGERLSQREVDEILQDKDLNGDGLVDFEEFVRMMS [V47K],-0.064 ± 0.11
4,RELRDAFREFDTNGDGRISVGELRAALKALLGERLSQREVDEILQDLDLNGDGLVDFEEFVRMMS [V47L],-0.475 ± 0.049
5,RELRDAFREFDTNGDGRISVGELRAALKALLGERLSQREVDEILQDMDLNGDGLVDFEEFVRMMS [V47M],-0.303 ± 0.088
6,RELRDAFREFDTNGDGRISVGELRAALKALLGERLSQREVDEILQDNDLNGDGLVDFEEFVRMMS [V47N],-0.211 ± 0.06
7,RELRDAFREFDTNGDGRISVGELRAALKALLGERLSQREVDEILQDPDLNGDGLVDFEEFVRMMS [V47P],-0.394 ± 0.049
8,RELRDAFREFDTNGDGRISVGELRAALKALLGERLSQREVDEILQDQDLNGDGLVDFEEFVRMMS [V47Q],0.013 ± 0.1
9,RELRDAFREFDTNGDGRISVGELRAALKALLGERLSQREVDEILQDTDLNGDGLVDFEEFVRMMS [V47T],-0.041 ± 0.069
10,RELRDAFREFDTNGDGRISVGELRAALKALLGERLSQREVDEILQDWDLNGDGLVDFEEFVRMMS [V47W],-0.199 ± 0.072
11,RELRDAFREFDTNGDGRISVGELRAALKALLGERLSQREVDEILQDYDLNGDGLVDFEEFVRMMS [V47Y],-0.01 ± 0.058
12,RELRDAFREFDTNGDGRISVGELRAALKALLGERLSQREVDEILQDVALNGDGLVDFEEFVRMMS [D48A],0.068 ± 0.098
13,RELRDAFREFDTNGDGRISVGELRAALKALLGERLSQREVDEILQDVELNGDGLVDFEEFVRMMS [D48E],0.131 ± 0.1
14,RELRDAFREFDTNGDGRISVGELRAALKALLGERLSQREVDEILQDVFLNGDGLVDFEEFVRMMS [D48F],-0.434 ± 0.27
15,RELRDAFREFDTNGDGRISVGELRAALKALLGERLSQREVDEILQDVGLNGDGLVDFEEFVRMMS [D48G],-0.529 ± 0.081
16,RELRDAFREFDTNGDGRISVGELRAALKALLGERLSQREVDEILQDVHLNGDGLVDFEEFVRMMS [D48H],0.108 ± 0.11
17,RELRDAFREFDTNGDGRISVGELRAALKALLGERLSQREVDEILQDVILNGDGLVDFEEFVRMMS [D48I],0.105 ± 0.41
18,RELRDAFREFDTNGDGRISVGELRAALKALLGERLSQREVDEILQDVKLNGDGLVDFEEFVRMMS [D48K],0.152 ± 0.082
19,RELRDAFREFDTNGDGRISVGELRAALKALLGERLSQREVDEILQDVLLNGDGLVDFEEFVRMMS [D48L],-0.015 ± 0.066
20,RELRDAFREFDTNGDGRISVGELRAALKALLGERLSQREVDEILQDVMLNGDGLVDFEEFVRMMS [D48M],0.05 ± 0.11
21,RELRDAFREFDTNGDGRISVGELRAALKALLGERLSQREVDEILQDVNLNGDGLVDFEEFVRMMS [D48N],0.122 ± 0.13

row,Variant,abundance fitness
1,RELRDAFREFDTNGDGRISVGELRAALKALLGERLSQREVDEILQDVPLNGDGLVDFEEFVRMMS [D48P],-0.231 ± 0.086
2,RELRDAFREFDTNGDGRISVGELRAALKALLGERLSQREVDEILQDVQLNGDGLVDFEEFVRMMS [D48Q],0.127 ± 0.074
3,RELRDAFREFDTNGDGRISVGELRAALKALLGERLSQREVDEILQDVRLNGDGLVDFEEFVRMMS [D48R],0.185 ± 0.05
4,RELRDAFREFDTNGDGRISVGELRAALKALLGERLSQREVDEILQDVSLNGDGLVDFEEFVRMMS [D48S],0.109 ± 0.087
5,RELRDAFREFDTNGDGRISVGELRAALKALLGERLSQREVDEILQDVTLNGDGLVDFEEFVRMMS [D48T],0.057 ± 0.098
6,RELRDAFREFDTNGDGRISVGELRAALKALLGERLSQREVDEILQDVVLNGDGLVDFEEFVRMMS [D48V],0.092 ± 0.048
7,RELRDAFREFDTNGDGRISVGELRAALKALLGERLSQREVDEILQDVWLNGDGLVDFEEFVRMMS [D48W],-0.103 ± 0.065
8,RELRDAFREFDTNGDGRISVGELRAALKALLGERLSQREVDEILQDVYLNGDGLVDFEEFVRMMS [D48Y],0.042 ± 0.099
9,RELRDAFREFDTNGDGRISVGELRAALKALLGERLSQREVDEILQDVDLAGDGLVDFEEFVRMMS [N50A],-0.056 ± 0.077
10,RELRDAFREFDTNGDGRISVGELRAALKALLGERLSQREVDEILQDVDLCGDGLVDFEEFVRMMS [N50C],0.032 ± 0.12
11,RELRDAFREFDTNGDGRISVGELRAALKALLGERLSQREVDEILQDVDLDGDGLVDFEEFVRMMS [N50D],0.186 ± 0.077
12,RELRDAFREFDTNGDGRISVGELRAALKALLGERLSQREVDEILQDVDLEGDGLVDFEEFVRMMS [N50E],-0.19 ± 0.061
13,RELRDAFREFDTNGDGRISVGELRAALKALLGERLSQREVDEILQDVDLFGDGLVDFEEFVRMMS [N50F],-0.346 ± 0.14
14,RELRDAFREFDTNGDGRISVGELRAALKALLGERLSQREVDEILQDVDLIGDGLVDFEEFVRMMS [N50I],-0.488 ± 0.12
15,RELRDAFREFDTNGDGRISVGELRAALKALLGERLSQREVDEILQDVDLKGDGLVDFEEFVRMMS [N50K],0.028 ± 0.068
16,RELRDAFREFDTNGDGRISVGELRAALKALLGERLSQREVDEILQDVDLLGDGLVDFEEFVRMMS [N50L],-0.232 ± 0.062
17,RELRDAFREFDTNGDGRISVGELRAALKALLGERLSQREVDEILQDVDLMGDGLVDFEEFVRMMS [N50M],-0.833 ± 0.2
18,RELRDAFREFDTNGDGRISVGELRAALKALLGERLSQREVDEILQDVDLPGDGLVDFEEFVRMMS [N50P],-0.2 ± 0.062
19,RELRDAFREFDTNGDGRISVGELRAALKALLGERLSQREVDEILQDVDLQGDGLVDFEEFVRMMS [N50Q],-0.014 ± 0.09
20,RELRDAFREFDTNGDGRISVGELRAALKALLGERLSQREVDEILQDVDLSGDGLVDFEEFVRMMS [N50S],-0.092 ± 0.067
